B1: TPR t1 (parent)
chain: GACCAAUCUGCCCUCAGAGCUCGAGAACAUCUUCGGAUGCAGAGGAGGCAGGCUUCGGUGGCGCGAUAGCGCCAACGUCCUCAACCUCCAAUGCAUCCCACCACAUGAUGAUGCCUGAAGAGCCUUGGUUUUUUG

Variants of: B1
Experiment: polymerase ribozyme fitness, log enrichment relative to wild type (log ratio); higher = more active; in vitro selection for triplet polymerase activity
Summary of the method: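 Frozen incubation at −7 °C formed the core of a single, triplicate in vitro selection round applied to PCR-built, transcribed mutant libraries of each subunit of a heterodimeric triplet polymerase ribozyme. Extended constructs were gel-excised, captured with streptavidin beads and amplified by RT-PCR, and input and output libraries were Illumina-sequenced with a filter of ≥10 input reads and ≥1 read per output. Fitness is the logarithm of genotype enrichment relative to wild-type enrichment, with inverse-variance-weighted replicate averaging, and the logarithm is base 2.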

In order of rising “polymerase ribozyme fitness (log ratio)” value:
1. GACCAAUCUGCCCUCAGAGCUCGAGAACAUCUUCGGAUGCAGAGGAGGCAGGCUUCGGUGGCGCGAUAGCGACAACGUCCUAAACCUCCAAUGCAUGCCACCACAUGAUGAUGGCUGAAGAGCCUUGGUUUUUUG [C72A C82A C97G C114G]  -5.93
2. GACCAAUCUGCCCUCAGAGCUCGAGAACAUCUUCGGAUGCAGAGGAGGCAGGCUUCGGUGGCGCGAUAGCGACAACGUCCUCAACCUCCAAUGCGUGCCACCAAAUGAUGAUGCCUGUAGAGCCUUCGUUUUUUG [C72A A95G C97G C104A A118U G127C]  -5.66
3. GACCAAUCUGCCCUCAGAGCUCGAGAACAUCUUCGGAUGCAGAGGAGGCAGGCUUCGGUGGCGCGAUAGCGACAACGUCCUCAACCUCCAAUGCAUCACACCACAUGAUGAUGCCUGAAGAGCCUUGGUUUUUUG [C72A C98A]  -4.32
4. GACCAAUCUGCCCUCAGAGCUCGAGAACAUCUUCGGAUGCAGAGGAGGCAGGCUUCGGUGGCGCGAUAGCGACAACGUCCUCAACCUCCAAUGCAUCCCACCACAUGAUGAUGCCUCAAGAGCCUUGGUUUUUUG [C72A G117C]  -4.09
5. GACCAAUCUGCCCUCAGAGCUCGAGAACAUCUUCGGAUGCAGAGGAGGCAGGCUUCGGUGGCGCGAUAGCGACAACGUCCUCUACCUCCAAUGCAUCCCACCACAUGAUGAUGCCUGAAGAGCCUUGUUUUUUUG [C72A A83U G128U]  -2.86
6. GACCAAUCUGCCCUCAGAGCUCGAGAACAUCUUCGGAUGCAGAGGAGGCAGGCUUCGGUGGCGCGAUAGCGACAACGUCCUCAACCUCCAAAGCAUCCCACCACAUGAUGAUGCCUGAAGAGCCUUGGUUUUUUG [C72A U92A]  -2.67
7. GACCAAUCUGCCCUCAGAGCUCGAGAACAUCUUCGGAUGCAGAGGAGGCAGGCUUCGGUGGCGCGAUAGCGACAACGUCCUCAACCUCCAAUGCAUCCCACCACAUGAUGAUGCCUUAAGAGCCUUGGUUUUUUG [C72A G117U]  -2.32
8. GACCAAUCUGCCCUCAGAGCUCGAGAACAUCUUCGGAUGCAGAGGAGGCAGGCUUCGGUGGCGCGAUAGCGACAACGUCCUCAACCUCCAAUGCAUCCCACCACAUGAUGAUGACUGAAGAACCUUGGUUUUUUG [C72A C114A G122A]  -2.11
9. GACCAAUCUGCCCUCAGAGCUCGAGAACAUCUUCGGAUGCAGAGGAGGCAGGCUUCGGUGGCGCGAUAGCGACAACGUCCUCAACCUCAAAUGCAUCCCACCACAAGAUGAUGCCUGAAGAGCCUUGGUUUUUUG [C72A C89A U106A]  -2.09
10. GACCAAUCUGCCCUCAGAGCUCGAGAACAUCUUCGGAUGCAGAGGAGGCAGGCUUCGGUGGCGCGAUAGCGACAACGUCCUCAACCUCCAAUACAUCUCACCACAUGAUGAUGCCUGAAGAGCCGUGGUUUUUUG [C72A G93A C98U U125G]  -1.8
11. GACCAAUCUGCCCUCAGAGCUCGAGAACAUCUUCGGAUGCAGAGGAGGCAGGCUUCGGUGGCGCGAUAGCGACAACGUCCUGAACCUCCAAUGCAUCCCACCACAUGAUGAUGCAUGAAGAGACUUGGUUUUUUG [C72A C82G C115A C123A]  -1.36
12. GACCAAUCUGCCCUCAGAGCUCGAGAACAUCUUCGGAUGCAGAGGAGGCAGGCUUCGGUGGCGCGAUAGCUCCAACGUCCUCAACCUCCAAUGCAUCCCACCACAUGAUGAUGCCUGAAGAGCCAUGGUUUUUUG [G71U U125A]  -1.21
13. GACCAAUCUGCCCUCAGAGCUCGAGAACAUCUUCGGAUGCAGAGGAGGCAGGCUUCGGUGGCGCGAUAGCGACAACGUCCCAAACCUCCAAUGCAUCCCACCACAUGAUGAUGCCUGAAGAGCCUUGGUUUUUUG [C72A U81C C82A]  -1.12
14. GACCAAUCUGCCCUCAGAGCUCGAGAACAUCUUCGGAUGCAGAGGAGGCAGGCUUCGGUGGCGCGAUAGCGACAACGUCCUCAACCUCCAAUACAUCCCACCACAUGAUGAUGCCUGAAGAGCCUUGGUUUUUUG [C72A G93A]  -0.667
15. GACCAAUCUGCCCUCAGAGCUCGAGAACAUCUUCGGAUGCAGAGGAGGCAGGCUUCGGUGGCGCGAUAGCGACAACGUCCUCAACCUCCAAUGCAUCCCACCACAUGAUGAUGCAUGAAGAGCCUUGGUUUUUUG [C72A C115A]  -0.416
16. GACCAAUCUGCCCUCAGAGCUCGAGAACAUCUUCGGAUGCAGAGGAGGCAGGCUUCGGUGGCGCGAUAGCGACAACGUCCUCAACCUUCAAUGCAUCCCACCACAUGAUGAUGCCUGAAGAGCCUUGGUUUUUUG [C72A C88U]  -0.32
17. GACCAAUCUGCCCUCAGAGCUCGAGAACAUCUUCGGAUGCAGAGGAGGCAGGCUUCGGUGGCGCGAUAGCGACAACGUCCUCAACCUCCAAUGCAUCCCACCACAUGAUGAUGCCUGAAGAGCCUUGGUUUUUUC [C72A G135C]  -0.133
18. GACCAAUCUGCCCUCAGAGCUCGAGAACAUCUUCGGAUGCAGAGGAGGCAGGCUUCGGUGGCGCGAUAGCGACAACGUCCUCAAACUCCAAUGCAUCCCACCACAUGAUGAUGCCUGAAGAGCCUUGGUUUUUUG [C72A C85A]  0.00801
19. GACCAAUCUGCCCUCAGAGCUCGAGAACAUCUUCGGAUGCAGAGGAGGCAGGCUUCGGUGGCGCGAUAGCGACAACGUCCUCAACCUCCAAUGCAUUCCACCACAUGAUGAUGCCUGAAGAGCCUUGGUUUUUUG [C72A C97U]  0.226
20. GACCAAUCUGCCCUCAGAGCUCGAGAACAUCUUCGGAUGCAGAGGAGGCAGGCUUCGGUGGCGCGAUAGCUCCAACGUCCUCAACCUCCAAUGCAUCCCACCACAUGAUGAUGCCUGAAGAGCCUUGGUUUAUUG [G71U U132A]  0.382
21. GACCAAUCUGCCCUCAGAGCUCGAGAACAUCUUCGGAUGCAGAGGAGGCAGGCUUCGGUGGCGCGAUAGCGACAACGUCCUCAACCUCCAAUGCAUCCCACCACAUGAUGAUGCCUGAAGAGGCUUGGUUUUUUG [C72A C123G]  1.56

Source: the RNAGym collection of RNA variant scans (doi:10.1073/pnas.2313332121)
